Measured values: PMC2679143 (PLoS ONE, 2009)

B1: Cif from Photorhabdus luminescens (natural protein)
chain: SKFKKNSINTIKLIDDIIALHNDPKGNKLLWNDNWQDKIINRDLANIFEKIDESVSELGGLEMYQEMVGVNPYDPTEPVCGLSAQNIFKLMTEGEHAVDPVEMAQTGKIDGNEFAESVDQLSSAKNYVALVNDRRLGHMFLIDIPSNDQETVGYIYQSDLGQGALPPLKIADWLNSRGKDAVSLNKLKKLLSREFNLLSDDEKRALISETLDIHKDVSNVELDRIKRDRGVDIYLTEYDVNNFYENIETLKSKLSNYDKKLSKPK
notes: also called CifPl; source: E. coli BL21(DE3) or B834(DE3), pET28a, purified (Ni2+-IMAC, Superdex 75)
B2: Cif from Photorhabdus asymbiotica (natural protein)
chain: MMREYSKEDDCVKEKTNLAESENVEADNYLEMDCLNYLAKLNGMPERKDHSLNSTKLIDDIIKLHNDRKGNKLLWNDNWQDKIIDRDLESIFKKIDEMVSEFGGIEIYKDIVGENPYDPTEPVCGYSAQNIFKLMTEGEHAVDPVKMAQTGKINGNEFAEKLEQLNSSNNYVALINDHRLGHMFLVDIPSTNREKVGYIYQSDLGDGALPALKIADWLKSRGKESINVNKLKKFLSNEFTMLSESEQKELIAEIFDINKDIANVKLGKIKKDKAVDVYLREYDLNDFISNIEKLKTKLV
notes: also called CifPa; P. asymbiotica Cif; source: E. coli BL21(DE3) or B834(DE3), pET28a, purified (Ni2+-IMAC, Superdex 75)

Key:
[1] = biological target: cycle inhibiting factor (Cif) from enteropathogenic Escherichia coli (EPEC) (enteropathogenic Escherichia coli (EPEC)); test: SEC
SEC = biological target: the molecule itself; test: SEC

Molecule | stoichiometry N [1] | stoichiometry N (SEC)
cycle inhibiting factor (Cif) from enteropathogenic Escherichia coli (EPEC) (natural protein) | 2 | 
B1 |  | 2
B2 |  | 2
